# In the supplement of paper PMC9112550, “Optimization of the antimicrobial peptide Bac7 by deep mutational scanning” (BMC Biology, 2022):
# System: Escherichia coli TOP10
# Test: shrunken log2 fold change of peptide-encoding DNA abundance (4.5 h post-induction vs induction); higher = less antimicrobial activity (less host growth inhibition)
# Conditions: time post-induction: 4.5 h; library: site-saturation at positions 5, 18, 19, 20
# 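Also: peptides expressed intracellularly from a pBAD plasmid library in pooled LB shake-flask culture, induced with 0.3% L-arabinose, DNA abundance read by NGS, three biological replicates, DESeq2 with apeglm shrinkage.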
row,Sequence,shrunken log2 fold change
1,RRIRKRPPRLPRPRPRPPMEPRP,0.135
2,RRIRKRPPRLPRPRPRPPMLPRP,0.203
3,RRIRKRPPRLPRPRPRPPMVPRP,0.296
4,RRIRKRPPRLPRPRPRPPNIPRP,-1.03
5,RRIRKRPPRLPRPRPRPPQKPRP,0.682
6,RRIRKRPPRLPRPRPRPPQWPRP,1.37
7,RRIRKRPPRLPRPRPRPPREPRP,0.689
8,RRIRKRPPRLPRPRPRPPRYPRP,0.525
9,RRIRKRPPRLPRPRPRPPSHPRP,0.543
10,RRIRKRPPRLPRPRPRPPWDPRP,0.68
11,RRIRKRPPRLPRPRPRPPWFPRP,0.309
12,RRIRKRPPRLPRPRPRPPWKPRP,0.173
13,RRIRKRPPRLPRPRPRPPYGPRP,0.156
14,RRIRKRPPRLPRPRPRPPYNPRP,-0.149
15,RRIRKRPPRLPRPRPRPPYSPRP,-0.433
16,RRIRKRPPRLPRPRPRPQCLPRP,0.131
17,RRIRKRPPRLPRPRPRPQDEPRP,-0.0149
18,RRIRKRPPRLPRPRPRPQDFPRP,0.00806
19,RRIRKRPPRLPRPRPRPQDQPRP,0.325
20,RRIRKRPPRLPRPRPRPQDSPRP,-0.017
21,RRIRKRPPRLPRPRPRPQEHPRP,0.0487
22,RRIRKRPPRLPRPRPRPQFVPRP,-0.0281

row,Sequence,shrunken log2 fold change
1,RRIRKRPPRLPRPRPRPQGGPRP,0.0321
2,RRIRKRPPRLPRPRPRPQGQPRP,-0.00726
3,RRIRKRPPRLPRPRPRPQIAPRP,-0.11
4,RRIRKRPPRLPRPRPRPQKFPRP,0.0144
5,RRIRKRPPRLPRPRPRPQLIPRP,0.0871
6,RRIRKRPPRLPRPRPRPQNSPRP,-0.0372
7,RRIRKRPPRLPRPRPRPQPNPRP,0.159
8,RRIRKRPPRLPRPRPRPQPWPRP,0.805
9,RRIRKRPPRLPRPRPRPQQEPRP,0.0644
10,RRIRKRPPRLPRPRPRPQRCPRP,0.269
11,RRIRKRPPRLPRPRPRPQRPPRP,0.518
12,RRIRKRPPRLPRPRPRPQRRPRP,0.734
13,RRIRKRPPRLPRPRPRPQVGPRP,0.0646
14,RRIRKRPPRLPRPRPRPQVYPRP,-0.0614
15,RRIRKRPPRLPRPRPRPQYQPRP,-0.11
16,RRIRKRPPRLPRPRPRPQYTPRP,-0.156
17,RRIRKRPPRLPRPRPRPQYWPRP,0.152
18,RRIRKRPPRLPRPRPRPRAQPRP,0.7
19,RRIRKRPPRLPRPRPRPRFTPRP,0.158
20,RRIRKRPPRLPRPRPRPRGWPRP,0.792
21,RRIRKRPPRLPRPRPRPRHIPRP,-0.0145
22,RRIRKRPPRLPRPRPRPRHLPRP,0.218

row,Sequence,shrunken log2 fold change
1,RRIRKRPPRLPRPRPRPRHPPRP,0.412
2,RRIRKRPPRLPRPRPRPRIQPRP,0.475
3,RRIRKRPPRLPRPRPRPRKPPRP,1.65
4,RRIRKRPPRLPRPRPRPRLDPRP,0.624
5,RRIRKRPPRLPRPRPRPRMIPRP,-0.00692
6,RRIRKRPPRLPRPRPRPRMNPRP,0.115
7,RRIRKRPPRLPRPRPRPRMWPRP,0.377
8,RRIRKRPPRLPRPRPRPRPAPRP,0.758
9,RRIRKRPPRLPRPRPRPRQMPRP,0.0035
10,RRIRKRPPRLPRPRPRPRRMPRP,0.488
11,RRIRKRPPRLPRPRPRPRSFPRP,-0.0333
12,RRIRKRPPRLPRPRPRPRSIPRP,0.176
13,RRIRKRPPRLPRPRPRPRVIPRP,0.0832
14,RRIRKRPPRLPRPRPRPRVYPRP,0.307
15,RRIRKRPPRLPRPRPRPRWAPRP,0.469
16,RRIRKRPPRLPRPRPRPRWCPRP,0.251
17,RRIRKRPPRLPRPRPRPRYAPRP,-0.129
18,RRIRKRPPRLPRPRPRPRYDPRP,-0.0842
19,RRIRKRPPRLPRPRPRPRYGPRP,-0.238
20,RRIRKRPPRLPRPRPRPSAIPRP,-0.00962
21,RRIRKRPPRLPRPRPRPSDCPRP,-0.00471
22,RRIRKRPPRLPRPRPRPSDHPRP,-0.239

row,Sequence,shrunken log2 fold change
1,RRIRKRPPRLPRPRPRPSESPRP,0.0559
2,RRIRKRPPRLPRPRPRPSGGPRP,0.255
3,RRIRKRPPRLPRPRPRPSGHPRP,-0.0496
4,RRIRKRPPRLPRPRPRPSHEPRP,-0.218
5,RRIRKRPPRLPRPRPRPSHRPRP,-0.0303
6,RRIRKRPPRLPRPRPRPSIDPRP,0.175
7,RRIRKRPPRLPRPRPRPSISPRP,0.146
8,RRIRKRPPRLPRPRPRPSKFPRP,-0.16
9,RRIRKRPPRLPRPRPRPSMCPRP,-0.472
10,RRIRKRPPRLPRPRPRPSMEPRP,0.181
11,RRIRKRPPRLPRPRPRPSPAPRP,0.478
12,RRIRKRPPRLPRPRPRPSQDPRP,0.107
13,RRIRKRPPRLPRPRPRPSQFPRP,0.164
14,RRIRKRPPRLPRPRPRPSQHPRP,0.109
15,RRIRKRPPRLPRPRPRPSSAPRP,0.214
16,RRIRKRPPRLPRPRPRPSWYPRP,-0.519
17,RRIRKRPPRLPRPRPRPSYWPRP,-0.144
18,RRIRKRPPRLPRPRPRPTERPRP,0.306
19,RRIRKRPPRLPRPRPRPTFDPRP,0.227
20,RRIRKRPPRLPRPRPRPTFRPRP,0.527
21,RRIRKRPPRLPRPRPRPTHHPRP,0.897
22,RRIRKRPPRLPRPRPRPTHYPRP,-0.134

row,Sequence,shrunken log2 fold change
1,RRIRKRPPRLPRPRPRPTIVPRP,-0.0951
2,RRIRKRPPRLPRPRPRPTMIPRP,-0.0569
3,RRIRKRPPRLPRPRPRPTNGPRP,0.0599
4,RRIRKRPPRLPRPRPRPTQHPRP,0.748
5,RRIRKRPPRLPRPRPRPTQTPRP,1.25
6,RRIRKRPPRLPRPRPRPTQWPRP,0.622
7,RRIRKRPPRLPRPRPRPTRPPRP,0.764
8,RRIRKRPPRLPRPRPRPTSCPRP,0.174
9,RRIRKRPPRLPRPRPRPTSWPRP,0.6
10,RRIRKRPPRLPRPRPRPTTFPRP,0.18
11,RRIRKRPPRLPRPRPRPTTYPRP,0.00371
12,RRIRKRPPRLPRPRPRPTVGPRP,0.197
13,RRIRKRPPRLPRPRPRPTVPPRP,0.283
14,RRIRKRPPRLPRPRPRPTVVPRP,1
15,RRIRKRPPRLPRPRPRPTWEPRP,-0.0667
16,RRIRKRPPRLPRPRPRPTYTPRP,0.475
17,RRIRKRPPRLPRPRPRPVCKPRP,0.0228
18,RRIRKRPPRLPRPRPRPVCTPRP,2.01
19,RRIRKRPPRLPRPRPRPVDKPRP,0.0581
20,RRIRKRPPRLPRPRPRPVFHPRP,0.818
21,RRIRKRPPRLPRPRPRPVFQPRP,0.447
